Measurements from paper PMC8988010 (The Journal of Biological Chemistry, 2021).
Positions count from the first letter of the chain named. Numbers in names are those of the source.

Key:
SEC-MALS = target: the molecule itself; test: SEC-MALS
HNF-1A DBD R263C = HNF-1A DBD R263C (Homo sapiens, UniProt P20823 83-279, R263C); test: ITC
HNF-1A DD-DBD N266S = HNF-1A DD-DBD N266S (Homo sapiens, UniProt P20823 1-279, N266S); test: ITC
HNF-1A DBD N266S = HNF-1A DBD N266S (Homo sapiens, UniProt P20823 83-279, N266S); test: ITC
HNF-1A DD-DBD R263C = HNF-1A DD-DBD R263C (Homo sapiens, UniProt P20823 1-279, R263C); test: ITC

Chain of HNF-1A DD-DBD N266S (P20823 1-279 N266S): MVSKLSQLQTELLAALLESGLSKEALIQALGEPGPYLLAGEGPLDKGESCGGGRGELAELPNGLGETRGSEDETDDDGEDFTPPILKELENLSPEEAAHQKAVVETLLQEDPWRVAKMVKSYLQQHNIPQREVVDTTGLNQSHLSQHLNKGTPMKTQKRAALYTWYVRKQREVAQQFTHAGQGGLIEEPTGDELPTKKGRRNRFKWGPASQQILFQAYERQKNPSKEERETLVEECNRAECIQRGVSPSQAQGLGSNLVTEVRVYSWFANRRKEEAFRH
Chain of HNF-1A DBD N266S (P20823 83-279 N266S): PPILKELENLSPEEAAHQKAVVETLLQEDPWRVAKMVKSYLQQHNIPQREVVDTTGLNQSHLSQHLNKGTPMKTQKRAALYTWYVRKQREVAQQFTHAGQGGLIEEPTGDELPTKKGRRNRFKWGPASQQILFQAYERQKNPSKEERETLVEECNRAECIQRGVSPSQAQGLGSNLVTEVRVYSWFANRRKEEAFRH
Chain of HNF-1A DBD R263C (P20823 83-279 R263C): as the sequence (P20823 83-279 N266S) above, with R181C, S184N counted along it

B1: HNF-1A DD-DBD (hepatocyte nuclear factor 1A, residues 1-279, WT) (domain or fragment, human, UniProt P20823 1-279, looked up)
chain: MVSKLSQLQTELLAALLESGLSKEALIQALGEPGPYLLAGEGPLDKGESCGGGRGELAELPNGLGETRGSEDETDDDGEDFTPPILKELENLSPEEAAHQKAVVETLLQEDPWRVAKMVKSYLQQHNIPQREVVDTTGLNQSHLSQHLNKGTPMKTQKRAALYTWYVRKQREVAQQFTHAGQGGLIEEPTGDELPTKKGRRNRFKWGPASQQILFQAYERQKNPSKEERETLVEECNRAECIQRGVSPSQAQGLGSNLVTEVRVYNWFANRRKEEAFRH
B1 was tested, and the “stoichiometry N” value (SEC-MALS) was 2.

B2: HNF-1A DD-DBD/R263C (residues 1-279, MODY3 variant p.Arg263Cys) (domain or fragment, human, UniProt P20823 1-279, looked up)
chain: B1 chain with R263C
For B2, the “stoichiometry N” value (SEC-MALS) was 2.

B3: HNF-1A DD-DBD/N266S (residues 1-279, variant p.Asn266Ser) (domain or fragment, human, UniProt P20823 1-279, looked up)
chain: B1 chain with N266S
B3: binds (SEC-MALS).

B4: RA (rat albumin promoter oligonucleotide), unlabeled (dsDNA)
DNA 1: CTTGGTTAATAATTCACCAGA
DNA 2: TCTGGTGAATTATTAACCAAG
B4 was tested, and the Kd (HNF-1A DBD R263C) was 2 ± 0.14 µM, the Kd (HNF-1A DD-DBD N266S) was 0.74 ± 0.11 µM and the Kd (HNF-1A DBD N266S) was 0.57 ± 0.05 µM. It also gave a Kd (HNF-1A DD-DBD R263C) of 8 ± 3 µM.
